Source: patent US20240052042A1 (Novartis, published 2024)

Key:
[1] = biological target: W74R hNPR1 mutant in the presence of ANP (human) (UniProt P01160); assay: ELISA, 1 µM IgG
[2] = biological target: constitutively active human NPR1 mutant (W74R) (human) (UniProt P16066); assay: ELISA, 1 µM IgG
[3] = biological target: T1, human Natriuretic Peptide Receptor 1 (hNPR1) (human, UniProt P16066 33-473, limits assumed); assay: ELISA, 1 µM IgG; set-up: unit not given here
T1 construct: pannings used NPR1-hFc; also called NPR1-hFc
T1 sequence: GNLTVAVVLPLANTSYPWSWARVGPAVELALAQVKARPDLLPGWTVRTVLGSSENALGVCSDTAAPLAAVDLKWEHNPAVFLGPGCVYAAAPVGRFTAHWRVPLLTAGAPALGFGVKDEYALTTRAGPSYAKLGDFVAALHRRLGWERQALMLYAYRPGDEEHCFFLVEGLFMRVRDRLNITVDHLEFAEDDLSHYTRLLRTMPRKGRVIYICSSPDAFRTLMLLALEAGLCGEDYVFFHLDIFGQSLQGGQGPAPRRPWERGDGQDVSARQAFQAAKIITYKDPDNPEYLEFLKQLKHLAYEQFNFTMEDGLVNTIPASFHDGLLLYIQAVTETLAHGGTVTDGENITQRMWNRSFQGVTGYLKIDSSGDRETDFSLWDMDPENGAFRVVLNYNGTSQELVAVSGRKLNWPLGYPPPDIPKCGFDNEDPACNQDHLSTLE

hNPR1-ANP complex = biological target: T2, hNPR1-ANP complex (human, UniProt P01160 124-151, limits assumed); assay: ELISA, 1 µM IgG; set-up: unit not given here
T2 construct: hNPR1 antigen in the presence of ANP; also called hNPR1 + 100 nM ANP
T2 sequence: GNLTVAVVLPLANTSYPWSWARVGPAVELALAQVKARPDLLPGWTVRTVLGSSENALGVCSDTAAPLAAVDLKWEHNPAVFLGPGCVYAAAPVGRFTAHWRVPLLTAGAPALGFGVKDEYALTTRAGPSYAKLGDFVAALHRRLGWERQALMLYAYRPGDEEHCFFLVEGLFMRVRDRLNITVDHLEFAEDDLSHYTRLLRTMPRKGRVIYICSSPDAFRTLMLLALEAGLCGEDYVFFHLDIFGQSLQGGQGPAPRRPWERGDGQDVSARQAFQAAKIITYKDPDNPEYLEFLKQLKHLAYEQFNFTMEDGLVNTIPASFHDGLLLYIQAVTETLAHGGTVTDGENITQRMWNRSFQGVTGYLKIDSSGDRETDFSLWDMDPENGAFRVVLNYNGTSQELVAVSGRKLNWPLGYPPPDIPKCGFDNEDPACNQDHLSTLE
T2 sequence (peptide): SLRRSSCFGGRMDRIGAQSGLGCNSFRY

rat NPR1 (rNPR1) = biological target: T3, rat NPR1 (rNPR1) (rat, UniProt P18910 29-469, limits assumed); assay: ELISA, 1 µM IgG; set-up: unit not given here
T3 construct: Soluble antigen
T3 sequence: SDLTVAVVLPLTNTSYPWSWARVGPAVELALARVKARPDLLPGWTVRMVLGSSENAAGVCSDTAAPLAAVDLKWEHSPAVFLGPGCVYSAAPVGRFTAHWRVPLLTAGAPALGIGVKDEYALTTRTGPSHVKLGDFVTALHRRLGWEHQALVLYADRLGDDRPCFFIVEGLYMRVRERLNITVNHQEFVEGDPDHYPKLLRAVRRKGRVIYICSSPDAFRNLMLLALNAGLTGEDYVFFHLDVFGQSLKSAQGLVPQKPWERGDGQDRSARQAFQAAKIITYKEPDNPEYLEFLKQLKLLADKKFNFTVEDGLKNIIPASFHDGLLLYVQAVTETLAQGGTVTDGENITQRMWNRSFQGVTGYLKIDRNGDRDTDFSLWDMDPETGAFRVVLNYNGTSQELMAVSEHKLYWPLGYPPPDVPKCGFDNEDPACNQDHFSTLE

rNPR1-ANP complex = biological target: T4, rNPR1-ANP complex (rat, UniProt P01160 124-151 (human entry), limits assumed); assay: ELISA, 1 µM IgG; set-up: unit not given here
T4 construct: rNPR1 antigen in the presence of ANP; also called rNPR1 + 100 nM ANP
T4 sequence: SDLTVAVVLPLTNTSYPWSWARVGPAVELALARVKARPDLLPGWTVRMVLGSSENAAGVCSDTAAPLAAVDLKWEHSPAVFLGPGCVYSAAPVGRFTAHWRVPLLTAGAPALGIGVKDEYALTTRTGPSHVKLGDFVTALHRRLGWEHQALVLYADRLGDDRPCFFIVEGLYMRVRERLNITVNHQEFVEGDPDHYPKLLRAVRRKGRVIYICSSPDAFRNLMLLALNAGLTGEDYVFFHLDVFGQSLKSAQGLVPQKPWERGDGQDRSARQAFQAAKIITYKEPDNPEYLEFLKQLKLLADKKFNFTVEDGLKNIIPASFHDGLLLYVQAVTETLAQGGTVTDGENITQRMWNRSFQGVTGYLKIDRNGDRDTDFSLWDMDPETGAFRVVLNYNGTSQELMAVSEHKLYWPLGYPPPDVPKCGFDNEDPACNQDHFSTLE
T4 sequence (peptide): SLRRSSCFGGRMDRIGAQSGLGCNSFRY

[4] = biological target: T5, human NPR3 (counter target) (human, UniProt P17342 27-481, limits assumed); assay: ELISA, 1 µM IgG; set-up: unit not given here
T5 construct: Pannings used hNPR3-hFc; also called hNPR3; hNPR3-hFc
T5 sequence (looked up): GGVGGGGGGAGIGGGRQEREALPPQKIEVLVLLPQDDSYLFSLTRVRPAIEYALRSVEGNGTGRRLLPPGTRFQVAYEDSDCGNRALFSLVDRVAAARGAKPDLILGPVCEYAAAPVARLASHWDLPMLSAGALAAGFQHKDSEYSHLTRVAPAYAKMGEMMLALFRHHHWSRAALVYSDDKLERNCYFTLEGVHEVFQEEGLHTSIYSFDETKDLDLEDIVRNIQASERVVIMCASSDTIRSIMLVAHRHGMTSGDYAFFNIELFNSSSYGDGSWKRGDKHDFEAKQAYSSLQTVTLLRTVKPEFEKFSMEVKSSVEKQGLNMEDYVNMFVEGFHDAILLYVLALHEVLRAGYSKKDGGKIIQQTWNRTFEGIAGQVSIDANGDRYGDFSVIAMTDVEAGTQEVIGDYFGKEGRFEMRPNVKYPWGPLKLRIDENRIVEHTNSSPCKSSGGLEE

[5] = biological target: T6, human NPR3 in the presence of ANP (human, UniProt P17342 27-481; P01160 124-151, limits assumed); assay: ELISA, 1 µM IgG; set-up: unit not given here
T6 construct: also called hNPR3 + 100 nM ANP
T6 sequence (looked up): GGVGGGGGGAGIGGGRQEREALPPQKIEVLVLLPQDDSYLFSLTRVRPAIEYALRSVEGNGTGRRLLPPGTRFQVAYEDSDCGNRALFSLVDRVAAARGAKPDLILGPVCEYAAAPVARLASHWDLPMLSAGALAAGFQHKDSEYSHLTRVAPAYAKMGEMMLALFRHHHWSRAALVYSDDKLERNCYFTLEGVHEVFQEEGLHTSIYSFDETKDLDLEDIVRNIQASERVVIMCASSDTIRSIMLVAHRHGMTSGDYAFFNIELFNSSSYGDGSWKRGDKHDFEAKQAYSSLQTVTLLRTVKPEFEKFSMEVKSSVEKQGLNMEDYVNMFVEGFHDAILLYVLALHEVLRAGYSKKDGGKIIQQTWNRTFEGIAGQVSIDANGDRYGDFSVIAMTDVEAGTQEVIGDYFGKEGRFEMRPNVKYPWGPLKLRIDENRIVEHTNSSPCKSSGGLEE
T6 sequence (peptide, looked up): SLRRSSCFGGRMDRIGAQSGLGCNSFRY

[6] = biological target: T7, human NPR1 on CHO-K1 cells (human, UniProt P16066 33-1061); assay: cell-based or functional assay
T7 sequence: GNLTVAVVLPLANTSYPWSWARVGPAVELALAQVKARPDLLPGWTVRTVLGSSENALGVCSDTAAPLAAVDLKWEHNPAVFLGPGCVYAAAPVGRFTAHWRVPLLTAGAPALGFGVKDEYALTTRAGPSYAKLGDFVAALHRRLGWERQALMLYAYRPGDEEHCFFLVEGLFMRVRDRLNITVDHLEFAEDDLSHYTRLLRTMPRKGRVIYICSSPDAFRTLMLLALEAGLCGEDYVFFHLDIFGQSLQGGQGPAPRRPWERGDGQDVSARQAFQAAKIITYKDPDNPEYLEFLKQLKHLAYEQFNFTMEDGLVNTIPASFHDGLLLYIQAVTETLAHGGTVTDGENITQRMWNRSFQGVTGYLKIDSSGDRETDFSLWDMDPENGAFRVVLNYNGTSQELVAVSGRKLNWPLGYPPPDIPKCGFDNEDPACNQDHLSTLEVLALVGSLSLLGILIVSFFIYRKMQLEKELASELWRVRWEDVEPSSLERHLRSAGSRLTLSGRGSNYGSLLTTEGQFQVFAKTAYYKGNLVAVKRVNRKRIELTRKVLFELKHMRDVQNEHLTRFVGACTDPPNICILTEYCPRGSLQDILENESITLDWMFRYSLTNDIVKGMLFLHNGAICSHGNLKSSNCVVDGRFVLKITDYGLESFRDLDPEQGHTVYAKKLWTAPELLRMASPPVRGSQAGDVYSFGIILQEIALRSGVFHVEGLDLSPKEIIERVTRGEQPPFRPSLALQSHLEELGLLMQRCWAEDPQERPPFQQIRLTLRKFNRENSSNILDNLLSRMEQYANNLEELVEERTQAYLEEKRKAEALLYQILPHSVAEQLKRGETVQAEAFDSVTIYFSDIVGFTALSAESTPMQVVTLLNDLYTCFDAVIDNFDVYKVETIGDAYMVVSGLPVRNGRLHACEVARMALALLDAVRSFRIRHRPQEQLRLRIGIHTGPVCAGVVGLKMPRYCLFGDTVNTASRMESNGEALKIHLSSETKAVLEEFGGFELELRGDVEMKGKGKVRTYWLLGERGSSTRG

[7] = biological target: T8, human NPR1 on CHO-K1 cells in the presence of ANP (human, UniProt P01160 124-151); assay: flow cytometry, hNPR1 CHO-K1 cells, IgG
T8 construct: also called hNPR1 CHO K1 + 100 nM ANP
T8 sequence: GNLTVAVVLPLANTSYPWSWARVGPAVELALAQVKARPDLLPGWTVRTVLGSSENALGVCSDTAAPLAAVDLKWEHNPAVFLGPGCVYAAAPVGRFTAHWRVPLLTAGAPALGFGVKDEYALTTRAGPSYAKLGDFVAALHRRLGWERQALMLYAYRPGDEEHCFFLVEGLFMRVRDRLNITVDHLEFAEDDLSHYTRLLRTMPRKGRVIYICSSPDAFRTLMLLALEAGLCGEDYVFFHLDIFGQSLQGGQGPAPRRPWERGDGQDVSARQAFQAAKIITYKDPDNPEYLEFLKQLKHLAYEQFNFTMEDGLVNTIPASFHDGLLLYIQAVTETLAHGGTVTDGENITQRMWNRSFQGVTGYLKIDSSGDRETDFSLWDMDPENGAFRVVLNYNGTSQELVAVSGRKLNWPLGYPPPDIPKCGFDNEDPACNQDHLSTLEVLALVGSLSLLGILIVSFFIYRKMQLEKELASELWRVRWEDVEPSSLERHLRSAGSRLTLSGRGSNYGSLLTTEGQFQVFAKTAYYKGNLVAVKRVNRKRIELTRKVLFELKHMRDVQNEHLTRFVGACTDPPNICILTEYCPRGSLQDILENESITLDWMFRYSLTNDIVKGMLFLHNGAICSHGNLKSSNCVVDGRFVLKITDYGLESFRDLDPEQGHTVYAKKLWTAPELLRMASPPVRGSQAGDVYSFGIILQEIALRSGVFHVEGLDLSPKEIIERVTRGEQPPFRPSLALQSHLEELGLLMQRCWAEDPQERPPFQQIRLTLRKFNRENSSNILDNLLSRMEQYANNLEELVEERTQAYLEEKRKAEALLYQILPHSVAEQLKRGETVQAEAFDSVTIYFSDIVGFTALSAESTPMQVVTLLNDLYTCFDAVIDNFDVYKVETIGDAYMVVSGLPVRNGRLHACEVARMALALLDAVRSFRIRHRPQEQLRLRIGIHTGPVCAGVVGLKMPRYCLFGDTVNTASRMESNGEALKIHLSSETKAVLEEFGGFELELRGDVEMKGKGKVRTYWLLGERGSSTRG
T8 sequence (peptide): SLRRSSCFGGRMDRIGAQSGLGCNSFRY

[8] = biological target: T7, human NPR1 on CHO-K1 cells; assay: flow cytometry, hNPR1 CHO-K1 cells, IgG
[9] = biological target: constitutively active human NPR1 mutant (W74R) (human) (UniProt P16066); assay: ELISA, IgG titrated on coated antigen, fluorescence [Cont.]

B1: YY05 (IgG format) (antibody, V domains shown)
VH: EVQLVQSGAEVKKPGESLKISCKGSGYSFTSYWISWVRQMPGKGLEWMGIIYPGTSYTRYSPSFQGQVTISADKSISTAYLQWSSLKASDTAMYYCARGAVAGQLGFDHWGQGTLVTVSS
VL: QSVLTQPPSVSGAPGQRVTISCTGSSSNIGAGYDVHWYQQLPGTAPKLLIYGNSNRPSGVPDRFSGSKSGTSASLAITGLQAEDEADYYCQSYYTSSHGPVFGGGTKLTVLG
notes: also called YY05_LALA
- ELISA binding at 1 µM IgG [1]: 23
- ELISA binding at 1 µM IgG [2]: 69
- ELISA binding at 1 µM IgG [3]: 81
- ELISA binding at 1 µM IgG (hNPR1-ANP complex): 32
- ELISA binding at 1 µM IgG (rat NPR1 (rNPR1)): 11
- ELISA binding at 1 µM IgG (rNPR1-ANP complex): 16
- ELISA binding at 1 µM IgG [4]: 7
- ELISA binding at 1 µM IgG [5]: 4
- cGMP conc [nM] at 1 µM IgG, +0.075 nM ANP [6]: 15 nM
- cGMP conc [nM] at 1 µM IgG, without ANP [6]: 13 nM
- flow cytometry S/BG at 1 µM IgG [7]: 5 S/BG
- flow cytometry S/BG at 1 µM IgG [8]: 15 S/BG
- EC50 (read off the curve) [9]: 1 nM
